The record followed here is US20150322156A1 (TOHOKU UNIVERSITY, published 2015).

The labels stand for the following.
B1: h528scFv, single-chain antibody of the humanized anti-human EGF receptor 1 (Her1) antibody 528 before lysine substitution (scFv)
scFv: QVQLVQSGAEVKKPGASVKVSCKASGYTFTSYWMHWVRQAPGQGLEWMGNIYPGSGGTNYAEKFKNRVTMTRDTSISTAYMELSRLRSDDTAVYYCARSGGPYFFDYWGQGTLVTVSSAGGGGSDIVMTQSPLSLPVTPGEPASISCRSSQNIVHNNGITYLEWYLQKPGQSPQLLIYKVSDRFSGVPDRFSGSGSGTDFTLKISRVEAEDVGVYYCFQGSHIPPTFGQGTKVEIKRAAAAEQKLISEEDLNLGGGMRGSHHHHHH
notes: also called PC
B2: lysine-substituted single-chain antibody "OK" containing VH0K and VL0K (all lysine residues replaced) (scFv)
scFv: QVQLVQSGAEVAEPGASVQVSCAASGYTFTSYWMHWVRQAPGQGLEWMGNIYPGSGGTNYAEEFQNRVTMTRDTSISTAYMELSRLRSDDTAVYYCARSGGPYFFDYWGQGTLVTVSSGGGGSGGGGSGGGGSDIVMTQSPLSLPVTPGEPASISCRSSQNIVHNNGITYLEWYLQRPGQSPQLLIYQVSDRFSGVPDRFSGSGSGTDFTLTISRVEAEDVGVYYCFQGSHIPPTFGQGTEVEIERHHHHHH
notes: Expressed in E. coli; also called VH0K VL0K
B3: lysine-substituted single-chain antibody "LK" containing VH0K and VL1K (L108 re-replaced with lysine) (scFv)
scFv: B2 scFv with E241K
notes: Expressed in E. coli; also called VH0K VL1K
B4: lysine-substituted single-chain antibody "HK" containing VH1K and VL0K (H19 re-replaced with lysine) (scFv)
scFv: B2 scFv with Q19K
notes: Expressed in E. coli; also called VH1K VL0K

Residue numbers refer to the chain shown, from its start.

The target of this assay is human EGF receptor 1 (EGFR) as used in the SPR rate analysis (UniProt P00533 25-645, limits assumed). The assay is described as follows: SPR rate analysis of scFv.
As for B1, the Ka is 2.61e+07 M⁻¹, the koff stood at 0.00542 s⁻¹ and the kon amounted to 141000 M⁻¹ s⁻¹.
The like results for B2 were, in that order, 7.32e+06 M⁻¹, 0.00824 s⁻¹ and 60300 M⁻¹ s⁻¹.
The like results for B3 were, in that order, 8.34e+06 M⁻¹, 0.00853 s⁻¹ and 71100 M⁻¹ s⁻¹.
The molecule B4 registered a Ka of 8.82e+06 M⁻¹, an off-rate constant (koff) of 0.00805 s⁻¹ and a kon of 71000 M⁻¹ s⁻¹.
